One block for each binder: values may come before it.
Assays:
Recombinant Human IL-13 [1] = target: T1, Recombinant Human IL-13 (human, UniProt P35225 35-146, limits assumed); assay: SPR (Biacore)
T1 construct: bought reagent
Description: (§1) The BIACORE assay (Biacore, Inc, Piscataway, N.J.) determined the affinity of antibodies or DVD-Ig with kinetic measurements of on-rate and off-rate constants. Binding of antibodies or DVD-Ig proteins to a target antigen (for example, a purified recombinant target antigen) was determined by surface plasmon resonance-based measurements with a Biacore®1000 or 3000 instrument (Biacore® AB, Uppsala, Sweden) using running HBS-EP (10 mM HEPES [pH 7.4], 150 mM NaCl, 3 mM EDTA, and 0.005% surfactant P20) at 25° C. All chemicals were obtained from Biacore® AB (Uppsala, Sweden) or otherwise from a different source as described in the text. For example, approximately 5000 RU of goat anti-mouse IgG, (Fcγ), fragment specific polyclonal antibody (Pierce Biotechnology Inc, Rockford, Ill.) diluted in 10 mM sodium acetate (pH 4.5) was directly immobilized across a CM5 research grade biosensor chip using a standard amine coupling kit according to manufacturer's instructions and procedures at 25 μg/ml. Unreacted moieties on the biosensor surface were blocked with ethanolamine. Modified carboxymethyl dextran surface in flowcell 2 and 4 was used as a reaction surface. Unmodified carboxymethyl dextran without goat anti-mouse IgG in flow cell 1 and 3 was used as the reference surface. For kinetic analysis, rate equations derived from the 1:1 Langmuir binding model were fitted simultaneously to association and dissociation phases of all eight injections (using global fit analysis) with the use of Biaevaluation 4.0.1 software. Purified antibodies or DVD-Ig proteins were diluted in HEPES-buffered saline for capture across goat anti-mouse IgG specific reaction surfaces. Antibodies or DVD-Ig proteins to be captured as a ligand (25 μg/ml) were injected over reaction matrices at a flow rate of 5 μl/minute. The association and dissociation rate constants, kₒₙ (M⁻¹s⁻¹) and koff (s⁻¹) were determined under a continuous flow rate of 25 μl/minute. Rate constants were derived by making kinetic binding measurements at different antigen concentrations ranging from 10-200 nM. The equilibrium dissociation constant (M) of the reaction between antibodies or DVD-Ig proteins and the target antigen was then calculated from the kinetic rate constants by the following formula: KD=koff/kₒₙ. Binding was recorded as a function of time and kinetic rate constants were calculated.

Recombinant Human IL-17 [2] = target: T2, Recombinant Human IL-17 (human, UniProt Q16552 20-155, limits assumed); assay: SPR (Biacore)
T2 construct: bought reagent; also called IL-17A
T2 sequence (looked up): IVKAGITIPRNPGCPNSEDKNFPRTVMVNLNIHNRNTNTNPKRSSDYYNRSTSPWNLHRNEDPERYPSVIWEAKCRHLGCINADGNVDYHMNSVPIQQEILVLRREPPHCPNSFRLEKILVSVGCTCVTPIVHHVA
Description: as §1

Recombinant Human IL-13 [3] = target: T1, Recombinant Human IL-13; assay: cell-based or functional assay
Recombinant Human IL-17 [4] = target: T2, Recombinant Human IL-17; assay: cell-based or functional assay

T1 sequence (P35225 35-146 limits assumed): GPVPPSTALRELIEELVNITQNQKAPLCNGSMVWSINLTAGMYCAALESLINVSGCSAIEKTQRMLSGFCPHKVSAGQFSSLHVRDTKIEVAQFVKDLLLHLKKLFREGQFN

B1: DVD2158 (bispecific antibody)
VH: EVTLRESGPGLVKPTQTLTLTCTLYGFSLSTSDMGVDWIRQPPGKGLEWLAHIWWDDVKRYNPALKSRLTISKDTSKNQVVLKLTSVDPVDTATYYCARTVSSGYIYYAMDYWGQGTLVTVSSASTKGPSVFPLAPEVQLVQSGAEVKKPGSSVKVSCKASGGSFGGYGIGWVRQAPGQGLEWMGGITPFFGFADYAQKFQGRVTITADESTTTAYMELSGLTSDDTAVYYCARDPNEFWNGYYSTHDFDSWGQGTTVTVSS
VL: DIQMTQSPSSLSASVGDRVTISCRASQDIRNYLNWYQQKPGKAPKLLIFYTSKLHSGVPSRFSGSGSGTDYTLTISSLQPEDIATYYCQQGLTPPLTFGGGTKVEIKRTVAAPEIVLTQSPDFQSVTPKEKVTITCRASQDIGSELHWYQQKPDQPPKLLIKYASHSTSGVPSRFSGSGSGTDFTLTINGLEAEDAGTYYCHQTDSLPYTFGPGTKVDIKR
notes: DVD-Ig; also called DVD2158H; DVD2158L
Kd (Recombinant Human IL-13 [1]): 0.086 nM | koff (Recombinant Human IL-13 [1]): 0.00014 s⁻¹ | kon (Recombinant Human IL-13 [1]): 1.6e+06 M⁻¹ s⁻¹ | Kd (Recombinant Human IL-17 [2]): < 0.05 nM | koff (Recombinant Human IL-17 [2]): < 1e-06 s⁻¹ | kon (Recombinant Human IL-17 [2]): 20000 M⁻¹ s⁻¹ | N-Terminal VD IL13 Neutralization Assay IC50 (Recombinant Human IL-13 [3]): 0.131 nM | C-Terminal VD IL17 Neutralization Assay IC50 (Recombinant Human IL-17 [4]): 0.0998 nM

B3: DVD2155 (bispecific antibody)
VH: EVQLVQSGAEVKKPGSSVKVSCKASGGSFGGYGIGWVRQAPGQGLEWMGGITPFFGFADYAQKFQGRVTITADESTTTAYMELSGLTSDDTAVYYCARDPNEFWNGYYSTHDFDSWGQGTTVTVSSASTKGPEVTLRESGPGLVKPTQTLTLTCTLYGFSLSTSDMGVDWIRQPPGKGLEWLAHIWWDDVKRYNPALKSRLTISKDTSKNQVVLKLTSVDPVDTATYYCARTVSSGYIYYAMDYWGQGTLVTVSS
VL: EIVLTQSPDFQSVTPKEKVTITCRASQDIGSELHWYQQKPDQPPKLLIKYASHSTSGVPSRFSGSGSGTDFTLTINGLEAEDAGTYYCHQTDSLPYTFGPGTKVDIKRTVAAPDIQMTQSPSSLSASVGDRVTISCRASQDIRNYLNWYQQKPGKAPKLLIFYTSKLHSGVPSRFSGSGSGTDYTLTISSLQPEDIATYYCQQGLTPPLTFGGGTKVEIKR
notes: DVD-Ig; also called DVD2155H; DVD2155L
Kd (Recombinant Human IL-13 [1]): 0.16 nM | koff (Recombinant Human IL-13 [1]): 3.8e-05 s⁻¹ | kon (Recombinant Human IL-13 [1]): 230000 M⁻¹ s⁻¹ | Kd (Recombinant Human IL-17 [2]): 0.0026 nM | koff (Recombinant Human IL-17 [2]): 6.9e-06 s⁻¹ | kon (Recombinant Human IL-17 [2]): 2.7e+06 M⁻¹ s⁻¹ | C-Terminal VD IL13 Neutralization Assay IC50 (Recombinant Human IL-13 [3]): 1.18 nM | N-Terminal VD IL17 Neutralization Assay IC50 (Recombinant Human IL-17 [4]): 0.0078 nM

B5: DVD2159 (bispecific antibody)
VH: EVQLVQSGAEVKKPGSSVKVSCKASGGSFGGYGIGWVRQAPGQGLEWMGGITPFFGFADYAQKFQGRVTITADESTTTAYMELSGLTSDDTAVYYCARDPNEFWNGYYSTHDFDSWGQGTTVTVSSASTKGPSVFPLAPEVTLRESGPGLVKPTQTLTLTCTLYGFSLSTSDMGVDWIRQPPGKGLEWLAHIWWDDVKRYNPALKSRLTISKDTSKNQVVLKLTSVDPVDTATYYCARTVSSGYIYYAMDYWGQGTLVTVSS
VL: EIVLTQSPDFQSVTPKEKVTITCRASQDIGSELHWYQQKPDQPPKLLIKYASHSTSGVPSRFSGSGSGTDFTLTINGLEAEDAGTYYCHQTDSLPYTFGPGTKVDIKRTVAAPDIQMTQSPSSLSASVGDRVTISCRASQDIRNYLNWYQQKPGKAPKLLIFYTSKLHSGVPSRFSGSGSGTDYTLTISSLQPEDIATYYCQQGLTPPLTFGGGTKVEIKR
notes: DVD-Ig; also called DVD2159H; DVD2159L
Kd (Recombinant Human IL-13 [1]): 0.2 nM | koff (Recombinant Human IL-13 [1]): 5.3e-05 s⁻¹ | kon (Recombinant Human IL-13 [1]): 260000 M⁻¹ s⁻¹ | Kd (Recombinant Human IL-17 [2]): 0.0049 nM | koff (Recombinant Human IL-17 [2]): 1.2e-05 s⁻¹ | kon (Recombinant Human IL-17 [2]): 2.5e+06 M⁻¹ s⁻¹ | C-Terminal VD IL13 Neutralization Assay IC50 (Recombinant Human IL-13 [3]): 0.876 nM | N-Terminal VD IL17 Neutralization Assay IC50 (Recombinant Human IL-17 [4]): 0.0081 nM

B7: DVD2157 (bispecific antibody)
VH: EVQLVQSGAEVKKPGSSVKVSCKASGGSFGGYGIGWVRQAPGQGLEWMGGITPFFGFADYAQKFQGRVTITADESTTTAYMELSGLTSDDTAVYYCARDPNEFWNGYYSTHDFDSWGQGTTVTVSSASTKGPEVTLRESGPGLVKPTQTLTLTCTLYGFSLSTSDMGVDWIRQPPGKGLEWLAHIWWDDVKRYNPALKSRLTISKDTSKNQVVLKLTSVDPVDTATYYCARTVSSGYIYYAMDYWGQGTLVTVSS
VL: EIVLTQSPDFQSVTPKEKVTITCRASQDIGSELHWYQQKPDQPPKLLIKYASHSTSGVPSRFSGSGSGTDFTLTINGLEAEDAGTYYCHQTDSLPYTFGPGTKVDIKRTVAAPSVFIFPPDIQMTQSPSSLSASVGDRVTISCRASQDIRNYLNWYQQKPGKAPKLLIFYTSKLHSGVPSRFSGSGSGTDYTLTISSLQPEDIATYYCQQGLTPPLTFGGGTKVEIKR
notes: DVD-Ig; also called DVD2157H; DVD2157L
Kd (Recombinant Human IL-13 [1]): 0.21 nM | koff (Recombinant Human IL-13 [1]): 6.9e-05 s⁻¹ | kon (Recombinant Human IL-13 [1]): 330000 M⁻¹ s⁻¹ | Kd (Recombinant Human IL-17 [2]): 0.018 nM | koff (Recombinant Human IL-17 [2]): 2.6e-05 s⁻¹ | kon (Recombinant Human IL-17 [2]): 1.5e+06 M⁻¹ s⁻¹ | C-Terminal VD IL13 Neutralization Assay IC50 (Recombinant Human IL-13 [3]): 0.244 nM | N-Terminal VD IL17 Neutralization Assay IC50 (Recombinant Human IL-17 [4]): 0.0066 nM

The remaining binders from weak to strong by Kd (Recombinant Human IL-13 [1]), led by results:

Kd (Recombinant Human IL-13 [1]): 0.38 nM | koff (Recombinant Human IL-13 [1]): 4.1e-05 s⁻¹ | kon (Recombinant Human IL-13 [1]): 110000 M⁻¹ s⁻¹ | Kd (Recombinant Human IL-17 [2]): 0.027 nM | koff (Recombinant Human IL-17 [2]): 4.5e-05 s⁻¹ | kon (Recombinant Human IL-17 [2]): 1.6e+06 M⁻¹ s⁻¹ | C-Terminal VD IL13 Neutralization Assay IC50 (Recombinant Human IL-13 [3]): 0.812 nM | N-Terminal VD IL17 Neutralization Assay IC50 (Recombinant Human IL-17 [4]): 0.0144 nM
B6: DVD2161 (bispecific antibody)
VH: EVQLVQSGAEVKKPGESVKISCKASGGSFRSYGISWVRQAPGQGLEWMGGITHFFGITDYAQKFQGRVTITADESTTTAYMELSGLTSDDTAVYYCAREPNDFWNGYYDTHDFDSWGQGTTVTVSSASTKGPEVTLRESGPGLVKPTQTLTLTCTLYGFSLSTSDMGVDWIRQPPGKGLEWLAHIWWDDVKRYNPALKSRLTISKDTSKNQVVLKLTSVDPVDTATYYCARTVSSGYIYYAMDYWGQGTLVTVSS
VL: EIVLTQSPDFQSVTPKEKVTITCRASQNIGSELHWYQQKPDQSPKLLIKYASHSISGVPSRFSGSGSGTDFTLTINGLEAEDAATYYCHQSDTLPHTFGQGTKVDIKRTVAAPDIQMTQSPSSLSASVGDRVTISCRASQDIRNYLNWYQQKPGKAPKLLIFYTSKLHSGVPSRFSGSGSGTDYTLTISSLQPEDIATYYCQQGLTPPLTFGGGTKVEIKR
notes: DVD-Ig; also called DVD2161H; DVD2161L

Kd (Recombinant Human IL-13 [1]): 0.22 nM | koff (Recombinant Human IL-13 [1]): 5.7e-05 s⁻¹ | kon (Recombinant Human IL-13 [1]): 260000 M⁻¹ s⁻¹ | Kd (Recombinant Human IL-17 [2]): 0.014 nM | koff (Recombinant Human IL-17 [2]): 3.2e-05 s⁻¹ | kon (Recombinant Human IL-17 [2]): 2.3e+06 M⁻¹ s⁻¹ | C-Terminal VD IL13 Neutralization Assay IC50 (Recombinant Human IL-13 [3]): 0.355 nM | N-Terminal VD IL17 Neutralization Assay IC50 (Recombinant Human IL-17 [4]): 0.0133 nM
B4: DVD2165 (bispecific antibody)
VH: EVQLVQSGAEVKKPGESVKISCKASGGSFRSYGISWVRQAPGQGLEWMGGITHFFGITDYAQKFQGRVTITADESTTTAYMELSGLTSDDTAVYYCAREPNDFWNGYYDTHDFDSWGQGTTVTVSSASTKGPSVFPLAPEVTLRESGPGLVKPTQTLTLTCTLYGFSLSTSDMGVDWIRQPPGKGLEWLAHIWWDDVKRYNPALKSRLTISKDTSKNQVVLKLTSVDPVDTATYYCARTVSSGYIYYAMDYWGQGTLVTVSS
VL: EIVLTQSPDFQSVTPKEKVTITCRASQNIGSELHWYQQKPDQSPKLLIKYASHSISGVPSRFSGSGSGTDFTLTINGLEAEDAATYYCHQSDTLPHTFGQGTKVDIKRTVAAPDIQMTQSPSSLSASVGDRVTISCRASQDIRNYLNWYQQKPGKAPKLLIFYTSKLHSGVPSRFSGSGSGTDYTLTISSLQPEDIATYYCQQGLTPPLTFGGGTKVEIKR
notes: DVD-Ig; also called DVD2165H; DVD2165L

Kd (Recombinant Human IL-13 [1]): 0.11 nM | koff (Recombinant Human IL-13 [1]): 0.00017 s⁻¹ | kon (Recombinant Human IL-13 [1]): 1.5e+06 M⁻¹ s⁻¹ | Kd (Recombinant Human IL-17 [2]): 1.7 nM | koff (Recombinant Human IL-17 [2]): 3.1e-05 s⁻¹ | kon (Recombinant Human IL-17 [2]): 18000 M⁻¹ s⁻¹ | N-Terminal VD IL13 Neutralization Assay IC50 (Recombinant Human IL-13 [3]): 0.146 nM | C-Terminal VD IL17 Neutralization Assay IC50 (Recombinant Human IL-17 [4]): 0.135 nM
B2: DVD2164 (bispecific antibody)
VH: EVTLRESGPGLVKPTQTLTLTCTLYGFSLSTSDMGVDWIRQPPGKGLEWLAHIWWDDVKRYNPALKSRLTISKDTSKNQVVLKLTSVDPVDTATYYCARTVSSGYIYYAMDYWGQGTLVTVSSASTKGPSVFPLAPEVQLVQSGAEVKKPGESVKISCKASGGSFRSYGISWVRQAPGQGLEWMGGITHFFGITDYAQKFQGRVTITADESTTTAYMELSGLTSDDTAVYYCAREPNDFWNGYYDTHDFDSWGQGTTVTVSS
VL: DIQMTQSPSSLSASVGDRVTISCRASQDIRNYLNWYQQKPGKAPKLLIFYTSKLHSGVPSRFSGSGSGTDYTLTISSLQPEDIATYYCQQGLTPPLTFGGGTKVEIKRTVAAPEIVLTQSPDFQSVTPKEKVTITCRASQNIGSELHWYQQKPDQSPKLLIKYASHSISGVPSRFSGSGSGTDFTLTINGLEAEDAATYYCHQSDTLPHTFGQGTKVDIKR
notes: DVD-Ig; also called DVD2164H; DVD2164L
